According to US20090192084A1:
Each block holds one substance with its values, some of them ahead of it.

Tests used:
Cullin 1 (human) = Cullin 1 (human) (UniProt Q13616); experiment: Flag co-IP, MudPIT MS, MG132
Praja 2 (human) = Praja 2 (human) (UniProt O43164); experiment: Flag co-IP, MudPIT MS, MG132
[1] = target: Ubiquitin conjugation factor E4 B, UBE4B (Ufd2ortholog) (human) (UniProt O95155); experiment: Flag co-IP, MudPIT MS, MG132
[2] = target: BTB and Kelch domain-containing protein 2, KLHL13 (human) (UniProt Q9P2N7); experiment: Flag co-IP, MudPIT MS, MG132
[3] = target: Bromodomain and WD-repeat domain-containing protein 2, WDR 1 I (human) (UniProt Q9BZH6); experiment: Flag co-IP, MudPIT MS, MG132
[4] = target: CUL3-interacting protein I. KLHL12 (human) (UniProt Q53G59); experiment: Flag co-IP, MudPIT MS, MG132
[5] = target: CUL4- and DDB I-associated WDR protein 2, WDR26 (human) (UniProt Q9H7D7); experiment: Flag co-IP, MudPIT MS, MG132
Cullin 3 (human) = Cullin 3 (human) (UniProt Q13618); experiment: Flag co-IP, MudPIT MS, MG132
Cullin 4B (human) = Cullin 4B (human) (UniProt Q13620); experiment: Flag co-IP, MudPIT MS, MG132
[6] = target: DDB1- and CUL4-associated factor I. VprBP (human) (UniProt Q9Y4B6); experiment: Flag co-IP, MudPIT MS, MG132
Elongin B (human) = Elongin B (human) (UniProt Q15370); experiment: Flag co-IP, MudPIT MS, MG132
[7] = target: Kelch domain-containing protein 2, KLDC2 (human) (UniProt Q9Y2U9); experiment: Flag co-IP, MudPIT MS, MG132
[8] = target: Kelch domain-containing protein 3, KLDC3 (human) (UniProt Q9BQ90); experiment: Flag co-IP, MudPIT MS, MG132
[9] = target: Kelch repeat and BTB domain-containing protein 7, KBTB7 (human) (UniProt Q8WVZ9); experiment: Flag co-IP, MudPIT MS, MG132
[10] = target: Kelch-like protein 22. KLEIL22 (human) (UniProt Q53GT1); experiment: Flag co-IP, MudPIT MS, MG132
[11] = target: RING-box protein 1, RBX1 (human) (UniProt P62877); experiment: Flag co-IP, MudPIT MS, MG132
[12] = target: Von Hippel-Lindau disease tumor suppressor, VHL (human) (UniProt P40337); experiment: Flag co-IP, MudPIT MS, MG132
[13] = target: Galectin-3 binding protein. LG3BP (human) (UniProt Q08380); experiment: Flag co-IP, MudPIT MS, MG132
[14] = target: RING finger protein 126. RNE126 (human) (UniProt Q9BV68); experiment: Flag co-IP, MudPIT MS, MG132
UBR1 (human) = UBR1 (human) (UniProt Q8IWV7); experiment: Flag co-IP, MudPIT MS, MG132
endogenous UFD1 (human) = target: T1, endogenous UFD1 (human) (UniProt Q92890); experiment: Flag co-IP, 293 cells, MudPIT MS
T1 sequence (looked up): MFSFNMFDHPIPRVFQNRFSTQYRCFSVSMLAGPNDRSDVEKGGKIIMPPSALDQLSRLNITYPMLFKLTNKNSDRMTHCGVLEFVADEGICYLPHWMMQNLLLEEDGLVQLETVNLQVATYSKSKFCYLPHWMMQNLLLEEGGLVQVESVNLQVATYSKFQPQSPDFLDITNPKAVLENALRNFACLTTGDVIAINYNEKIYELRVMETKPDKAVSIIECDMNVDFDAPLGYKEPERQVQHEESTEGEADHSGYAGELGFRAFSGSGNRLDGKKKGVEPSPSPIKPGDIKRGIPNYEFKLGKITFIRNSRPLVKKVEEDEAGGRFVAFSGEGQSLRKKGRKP

Chain of CUL4- and DDB I-associated WDR protein 2, WDR26 (human) (Q9H7D7 whole entry): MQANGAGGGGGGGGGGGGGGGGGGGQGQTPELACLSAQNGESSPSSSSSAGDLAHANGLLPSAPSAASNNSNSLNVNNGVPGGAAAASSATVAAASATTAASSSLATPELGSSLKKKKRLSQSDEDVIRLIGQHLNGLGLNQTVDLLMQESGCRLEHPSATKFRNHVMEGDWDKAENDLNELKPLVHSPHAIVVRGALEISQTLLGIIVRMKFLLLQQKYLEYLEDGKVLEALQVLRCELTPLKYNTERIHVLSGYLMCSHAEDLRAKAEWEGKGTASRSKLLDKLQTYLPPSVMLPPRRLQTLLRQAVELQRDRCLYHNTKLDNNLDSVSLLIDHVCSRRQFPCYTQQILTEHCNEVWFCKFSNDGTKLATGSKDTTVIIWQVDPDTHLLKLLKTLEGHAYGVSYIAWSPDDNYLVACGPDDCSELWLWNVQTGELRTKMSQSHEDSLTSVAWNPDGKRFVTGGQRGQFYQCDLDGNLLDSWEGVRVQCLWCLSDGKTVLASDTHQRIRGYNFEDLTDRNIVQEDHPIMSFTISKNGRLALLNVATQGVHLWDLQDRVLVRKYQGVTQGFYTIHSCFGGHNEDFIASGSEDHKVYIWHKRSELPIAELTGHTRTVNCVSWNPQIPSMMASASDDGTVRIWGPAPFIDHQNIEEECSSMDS
Chain of Von Hippel-Lindau disease tumor suppressor, VHL (human) (P40337 whole entry): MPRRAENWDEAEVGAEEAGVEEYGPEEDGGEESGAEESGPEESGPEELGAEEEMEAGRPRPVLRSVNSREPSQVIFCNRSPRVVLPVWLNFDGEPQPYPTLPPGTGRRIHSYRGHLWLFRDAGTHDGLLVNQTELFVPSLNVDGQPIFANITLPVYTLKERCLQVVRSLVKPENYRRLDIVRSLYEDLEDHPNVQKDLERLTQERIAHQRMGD
Chain of Praja 2 (human) (O43164 2-708 limits assumed): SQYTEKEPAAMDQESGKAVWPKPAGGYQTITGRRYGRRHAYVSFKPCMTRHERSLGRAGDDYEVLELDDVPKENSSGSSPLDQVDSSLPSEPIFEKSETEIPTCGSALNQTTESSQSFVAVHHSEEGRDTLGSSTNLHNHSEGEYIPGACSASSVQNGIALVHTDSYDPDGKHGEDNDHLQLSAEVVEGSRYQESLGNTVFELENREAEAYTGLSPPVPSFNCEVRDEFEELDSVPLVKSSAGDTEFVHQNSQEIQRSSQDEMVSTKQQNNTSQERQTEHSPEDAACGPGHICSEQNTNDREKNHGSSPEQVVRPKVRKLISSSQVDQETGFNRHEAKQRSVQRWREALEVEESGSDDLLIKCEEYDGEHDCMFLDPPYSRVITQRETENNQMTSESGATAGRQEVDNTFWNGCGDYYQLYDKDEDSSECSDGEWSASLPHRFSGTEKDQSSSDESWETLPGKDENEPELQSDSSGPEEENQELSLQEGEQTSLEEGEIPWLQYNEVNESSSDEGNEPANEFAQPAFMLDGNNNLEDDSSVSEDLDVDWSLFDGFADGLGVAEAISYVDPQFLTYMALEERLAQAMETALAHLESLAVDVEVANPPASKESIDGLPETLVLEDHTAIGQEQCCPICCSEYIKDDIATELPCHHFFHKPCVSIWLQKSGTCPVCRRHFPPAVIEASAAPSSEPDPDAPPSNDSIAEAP
Chain of UBR1 (human) (Q8IWV7 2-1749 limits assumed): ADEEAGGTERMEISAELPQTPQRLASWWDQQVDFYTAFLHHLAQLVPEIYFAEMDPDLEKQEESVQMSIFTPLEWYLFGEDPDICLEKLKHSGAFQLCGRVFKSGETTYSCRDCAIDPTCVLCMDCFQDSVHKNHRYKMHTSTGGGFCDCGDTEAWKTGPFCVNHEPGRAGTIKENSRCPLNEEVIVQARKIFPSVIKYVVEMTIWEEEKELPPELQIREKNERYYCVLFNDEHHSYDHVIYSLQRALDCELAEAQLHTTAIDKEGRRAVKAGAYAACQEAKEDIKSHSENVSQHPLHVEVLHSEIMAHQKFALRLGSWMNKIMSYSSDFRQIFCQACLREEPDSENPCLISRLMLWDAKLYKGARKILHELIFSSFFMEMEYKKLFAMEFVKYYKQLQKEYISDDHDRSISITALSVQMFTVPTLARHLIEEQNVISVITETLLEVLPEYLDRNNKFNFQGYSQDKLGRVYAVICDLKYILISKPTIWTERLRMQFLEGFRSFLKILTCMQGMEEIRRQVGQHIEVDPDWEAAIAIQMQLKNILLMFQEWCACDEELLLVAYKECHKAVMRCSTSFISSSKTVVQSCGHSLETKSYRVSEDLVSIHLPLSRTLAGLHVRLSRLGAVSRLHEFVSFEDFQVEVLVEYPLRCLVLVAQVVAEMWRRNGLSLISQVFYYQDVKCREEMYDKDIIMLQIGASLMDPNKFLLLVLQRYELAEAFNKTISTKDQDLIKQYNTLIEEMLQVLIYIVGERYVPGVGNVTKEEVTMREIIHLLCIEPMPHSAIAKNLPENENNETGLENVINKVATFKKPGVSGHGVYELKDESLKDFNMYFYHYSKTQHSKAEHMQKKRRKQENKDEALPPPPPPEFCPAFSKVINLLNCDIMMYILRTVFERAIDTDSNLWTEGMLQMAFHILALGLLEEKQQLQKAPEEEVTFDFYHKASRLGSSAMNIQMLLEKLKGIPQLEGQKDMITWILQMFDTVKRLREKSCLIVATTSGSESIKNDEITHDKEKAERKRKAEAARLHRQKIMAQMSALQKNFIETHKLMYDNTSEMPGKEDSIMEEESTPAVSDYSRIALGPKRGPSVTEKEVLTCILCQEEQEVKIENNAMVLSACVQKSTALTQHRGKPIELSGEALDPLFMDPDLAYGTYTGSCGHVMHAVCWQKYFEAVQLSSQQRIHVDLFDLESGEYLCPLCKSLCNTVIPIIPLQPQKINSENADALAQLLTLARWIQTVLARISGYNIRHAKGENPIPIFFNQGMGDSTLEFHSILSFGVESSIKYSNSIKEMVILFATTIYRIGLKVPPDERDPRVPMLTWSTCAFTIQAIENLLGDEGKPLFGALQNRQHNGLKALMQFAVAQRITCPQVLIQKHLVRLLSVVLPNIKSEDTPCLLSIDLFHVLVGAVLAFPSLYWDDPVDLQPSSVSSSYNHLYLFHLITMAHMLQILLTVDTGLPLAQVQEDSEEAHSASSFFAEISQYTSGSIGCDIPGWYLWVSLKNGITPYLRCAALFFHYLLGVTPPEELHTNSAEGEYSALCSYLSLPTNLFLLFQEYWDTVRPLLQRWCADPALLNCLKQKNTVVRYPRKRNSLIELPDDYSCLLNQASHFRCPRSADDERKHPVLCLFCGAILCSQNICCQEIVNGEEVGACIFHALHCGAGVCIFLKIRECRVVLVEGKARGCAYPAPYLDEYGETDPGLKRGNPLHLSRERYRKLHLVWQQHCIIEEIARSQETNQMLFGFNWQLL
Chain of Cullin 3 (human) (Q13618 2-768 limits assumed): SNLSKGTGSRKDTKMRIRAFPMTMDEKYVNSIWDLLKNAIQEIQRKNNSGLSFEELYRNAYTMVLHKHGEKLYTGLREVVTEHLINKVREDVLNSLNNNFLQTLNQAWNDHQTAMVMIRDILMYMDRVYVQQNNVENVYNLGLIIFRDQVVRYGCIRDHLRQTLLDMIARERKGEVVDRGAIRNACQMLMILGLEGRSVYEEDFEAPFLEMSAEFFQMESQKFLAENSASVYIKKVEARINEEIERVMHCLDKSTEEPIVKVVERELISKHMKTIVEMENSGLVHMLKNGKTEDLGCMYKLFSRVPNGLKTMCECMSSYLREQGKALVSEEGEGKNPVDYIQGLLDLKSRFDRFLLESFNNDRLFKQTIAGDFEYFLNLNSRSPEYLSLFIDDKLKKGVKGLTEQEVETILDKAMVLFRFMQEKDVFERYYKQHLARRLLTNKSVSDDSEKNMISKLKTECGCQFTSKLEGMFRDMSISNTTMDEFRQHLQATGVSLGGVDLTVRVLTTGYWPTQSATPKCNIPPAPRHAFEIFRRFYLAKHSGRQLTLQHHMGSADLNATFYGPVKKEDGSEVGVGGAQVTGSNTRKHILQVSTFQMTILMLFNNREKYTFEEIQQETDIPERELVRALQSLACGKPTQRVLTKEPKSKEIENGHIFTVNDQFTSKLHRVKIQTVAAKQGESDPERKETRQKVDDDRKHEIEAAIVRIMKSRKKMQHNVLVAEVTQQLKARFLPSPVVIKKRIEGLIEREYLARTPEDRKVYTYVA
Chain of Cullin 4B (human) (Q13620 other isoform, or with tags, fused parts or gaps limits assumed): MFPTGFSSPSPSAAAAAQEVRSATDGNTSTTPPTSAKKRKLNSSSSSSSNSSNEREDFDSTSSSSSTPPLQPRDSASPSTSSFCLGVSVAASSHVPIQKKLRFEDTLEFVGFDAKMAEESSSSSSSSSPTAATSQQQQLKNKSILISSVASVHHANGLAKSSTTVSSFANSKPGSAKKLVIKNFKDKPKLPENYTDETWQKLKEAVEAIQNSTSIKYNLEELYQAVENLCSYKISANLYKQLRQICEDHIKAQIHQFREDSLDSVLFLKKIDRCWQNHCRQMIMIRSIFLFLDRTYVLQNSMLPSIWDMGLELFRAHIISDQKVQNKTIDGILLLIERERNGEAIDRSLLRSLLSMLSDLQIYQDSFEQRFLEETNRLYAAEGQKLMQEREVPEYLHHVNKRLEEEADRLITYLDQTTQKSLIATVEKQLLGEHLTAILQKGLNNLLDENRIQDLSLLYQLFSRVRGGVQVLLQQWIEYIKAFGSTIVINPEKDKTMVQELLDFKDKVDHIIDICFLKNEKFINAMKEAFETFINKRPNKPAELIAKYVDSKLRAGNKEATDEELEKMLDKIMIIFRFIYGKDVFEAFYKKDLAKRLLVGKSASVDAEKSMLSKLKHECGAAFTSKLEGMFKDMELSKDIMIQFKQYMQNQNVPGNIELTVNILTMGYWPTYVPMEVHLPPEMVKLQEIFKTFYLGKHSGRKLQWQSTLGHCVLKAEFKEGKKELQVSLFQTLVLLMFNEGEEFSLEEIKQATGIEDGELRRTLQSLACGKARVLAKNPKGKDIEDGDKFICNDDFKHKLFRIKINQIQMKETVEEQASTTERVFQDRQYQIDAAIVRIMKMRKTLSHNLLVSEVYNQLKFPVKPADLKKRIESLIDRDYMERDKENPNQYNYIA

- abundance factor (AF) (Cullin 1 (human)): 1.5
- sequence count (Cullin 1 (human)): 2
- spectrum count (Cullin 1 (human)): 3
- abundance factor (AF) (Praja 2 (human)): 1.1
- sequence count (Praja 2 (human)): 2
- spectrum count (Praja 2 (human)): 2
- abundance factor (AF) [1]: 1.5
- sequence count [1]: 5
- spectrum count [1]: 5
Substance: Flag-SAKS1 (from UniProt Q04323 1-297)

- abundance factor (AF) [2]: 1.4
- sequence count [2]: 4
- spectrum count [2]: 4
- abundance factor (AF) [3]: 1.3
- sequence count [3]: 5
- spectrum count [3]: 7
- abundance factor (AF) [4]: 1.2
- sequence count [4]: 3
- spectrum count [4]: 3
- abundance factor (AF) [5]: 7.2
- sequence count [5]: 9
- spectrum count [5]: 17
- abundance factor (AF) (Cullin 3 (human)): 8.4
- sequence count (Cullin 3 (human)): 16
- spectrum count (Cullin 3 (human)): 30
- abundance factor (AF) (Cullin 4B (human)): 2.7
- sequence count (Cullin 4B (human)): 10
- spectrum count (Cullin 4B (human)): 11
- abundance factor (AF) [6]: 0.6
- sequence count [6]: 3
- spectrum count [6]: 4
- abundance factor (AF) (Elongin B (human)): 9.7
- sequence count (Elongin B (human)): 5
- spectrum count (Elongin B (human)): 7
- abundance factor (AF) [7]: 3.2
- sequence count [7]: 4
- spectrum count [7]: 6
- abundance factor (AF) [8]: 1.7
- sequence count [8]: 3
- spectrum count [8]: 3
- abundance factor (AF) [9]: 1
- sequence count [9]: 3
- spectrum count [9]: 3
- abundance factor (AF) [10]: 2.8
- sequence count [10]: 8
- spectrum count [10]: 8
- abundance factor (AF) [11]: 4.1
- sequence count [11]: 2
- spectrum count [11]: 2
- abundance factor (AF) [12]: 2.1
- sequence count [12]: 2
- spectrum count [12]: 2
Substance: Flag-UBXD7 (from UniProt O94888 1-489)

- abundance factor (AF) [13]: 1.1
- spectrum count [13]: 3
- abundance factor (AF) [14]: 1.4
- sequence count [14]: 2
- spectrum count [14]: 2
- abundance factor (AF) (UBR1 (human)): 0.4
- sequence count (UBR1 (human)): 3
- spectrum count (UBR1 (human)): 3
- sequence count (endogenous UFD1 (human)): 7
- sequence coverage (endogenous UFD1 (human)): 29.4%
- spectrum count (endogenous UFD1 (human)): 82
Substance: Flag-UBXD8 (from UniProt Q96CS3 1-445)
